# Test results taken from paper PMC5180179, “Bacteriophage T5 gene D10 encodes a branch-migration protein”.
# Where a chain is given by its changes, count along the chain named.
# T1: D10 helicase (wild type) (Bacteriophage T5, UniProt P11107 1-450)
# T1 sequence: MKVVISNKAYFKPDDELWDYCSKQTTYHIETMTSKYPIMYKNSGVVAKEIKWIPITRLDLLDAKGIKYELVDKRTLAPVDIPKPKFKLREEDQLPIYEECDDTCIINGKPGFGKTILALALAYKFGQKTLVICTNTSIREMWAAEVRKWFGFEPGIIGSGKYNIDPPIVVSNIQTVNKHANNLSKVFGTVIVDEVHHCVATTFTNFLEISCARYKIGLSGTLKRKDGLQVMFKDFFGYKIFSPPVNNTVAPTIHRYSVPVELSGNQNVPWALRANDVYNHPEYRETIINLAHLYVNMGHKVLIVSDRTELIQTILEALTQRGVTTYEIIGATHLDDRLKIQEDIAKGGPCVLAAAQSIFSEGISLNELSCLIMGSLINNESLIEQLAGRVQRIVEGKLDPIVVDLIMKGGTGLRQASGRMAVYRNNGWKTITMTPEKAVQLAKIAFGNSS
# T2: D10 R389N (Bacteriophage T5, UniProt P11107 1-450, R389N)
# T2 sequence: T1 sequence with R389N
# B1: Y20'' (dsDNA)
# DNA 1: TTCGAAACGTGCGGAATCATACGGGCGGCTTAACGGTGAT
# DNA 2: ATCACCGTTAAGCCGCCCGTCGACCAAGAGCTCGGTACCC
# DNA 3: GGGTACCGAGCTCTTGGTCGATGATTCCGCACGTTTCGAA
# B2: Y20-3 (oligo A nicked) (dsDNA)
# DNA 1: TTCGAAACGTGCGCGCCCAT
# DNA 2: ACGCCAAGCTTAACGGTGAT
# DNA 3: ATCACCGTTAAGCTTGGCGTCGAATTCGAGCTCGGTACCC
# DNA 4: GGGTACCGAGCTCGAATTCGATGGGCGCGCACGTTTCGAA
# B3: Y20' (dsDNA)
# DNA 1: TTCGAAACGTGCGCGCCTCGATGCCAAGCTTAACGGTGAT
# DNA 2: B2 DNA 3 with G19A, C21A, G22C, A23G
# DNA 3: GGGTACCGAGCTCGAATCGTCGAGGCGCGCACGTTTCGAA
# B4: Y20 (dsDNA)
# DNA 1: B3 DNA 1 with T18C, C19A, G20T, T22C
# DNA 2: B2 DNA 3
# DNA 3: B2 DNA 4
# B5: Y20-1 (oligo C nicked) (dsDNA)
# DNA 1: B3 DNA 1 with T18C, C19A, G20T, T22C
# DNA 2: B2 DNA 3
# DNA 3: GGGTACCGAGCTCGAATTCG
# DNA 4: ATGGGCGCGCACGTTTCGAA
# B6: Y20-2 (oligo B nicked) (dsDNA)
# DNA 1: B3 DNA 1 with T18C, C19A, G20T, T22C
# DNA 2: B2 DNA 4
# DNA 3: ATCACCGTTAAGCTTGGCGT
# DNA 4: CGAATTCGAGCTCGGTACCC
# B7: NHJ20 (dsDNA)
# DNA 1: B3 DNA 1 with T18C, C19A, G20T, T22C
# DNA 2: B2 DNA 3
# DNA 3: GGGTACCGAGCTCGAATTCGTGGGCGGTGCCCAACGCATA
# DNA 4: TATGCGTTGGGCACCGCCCAATGGGCGCGCACGTTTCGAA
# What was measured:
# [1] = target: T1, D10 helicase (wild type); assay: EMSA with poly d(AT) competitor; no ATP/Mg2+; affinity near identical to Y20; bound but not unwound; EMSA: 0.1 nM DNA, 20 mM HEPES-NaOH pH 7.5, 135 mM NaCl, 0.1% NP40 alternative, 0.1 mg/ml BSA, 2 mM DTT, 1 mM EDTA, 10% glycerol, 22 °C, 20 min; footprinting the same with 10 nM DNA and no glycerol; settings: protein: recombinant; tags: GST tag removed with thrombin; label: 5'-32P; three-way Y-junction, three 20 bp arms
# [2] = target: T1, D10 helicase (wild type); assay: EMSA with nonspecific competitor DNA; no ATP/Mg2+, 1 mM EDTA; EMSA: 0.1 nM DNA, 20 mM HEPES-NaOH pH 7.5, 135 mM NaCl, 0.1% NP40 alternative, 0.1 mg/ml BSA, 2 mM DTT, 1 mM EDTA, 10% glycerol, 22 °C, 20 min; footprinting the same with 10 nM DNA and no glycerol; settings: protein: recombinant; tags: GST tag removed with thrombin; label: 5'-32P; three-way Y-junction, three 20 bp arms, nick in strand A at the junction
# [3] = target: T1, D10 helicase (wild type); assay: EMSA with poly d(AT) competitor; no ATP/Mg2+; affinity near identical to Y20; EMSA: 0.1 nM DNA, 20 mM HEPES-NaOH pH 7.5, 135 mM NaCl, 0.1% NP40 alternative, 0.1 mg/ml BSA, 2 mM DTT, 1 mM EDTA, 10% glycerol, 22 °C, 20 min; footprinting the same with 10 nM DNA and no glycerol; settings: protein: recombinant; tags: GST tag removed with thrombin; label: 5'-32P; three-way Y-junction, three 20 bp arms
# [4] = target: T1, D10 helicase (wild type); assay: EMSA with poly d(AT) competitor; no ATP/Mg2+; 0.1 nM DNA, 0.4 nM D10 (all substrate bound); EMSA: 0.1 nM DNA, 20 mM HEPES-NaOH pH 7.5, 135 mM NaCl, 0.1% NP40 alternative, 0.1 mg/ml BSA, 2 mM DTT, 1 mM EDTA, 10% glycerol, 22 °C, 20 min; footprinting the same with 10 nM DNA and no glycerol; settings: protein: recombinant; tags: GST tag removed with thrombin; label: 5'-32P on one strand; three-way Y-junction, three 20 bp arms
# [5] = target: T1, D10 helicase (wild type); assay: EMSA with nonspecific competitor DNA; affinity similar to Y20; EMSA: 0.1 nM DNA, 20 mM HEPES-NaOH pH 7.5, 135 mM NaCl, 0.1% NP40 alternative, 0.1 mg/ml BSA, 2 mM DTT, 1 mM EDTA, 10% glycerol, 22 °C, 20 min; footprinting the same with 10 nM DNA and no glycerol; settings: protein: recombinant, tags: GST tag removed with thrombin, label: 5'-32P, three-way Y-junction, three 20 bp arms
# [6] = target: T1, D10 helicase (wild type); assay: EMSA; EMSA: 0.1 nM DNA, 20 mM HEPES-NaOH pH 7.5, 135 mM NaCl, 0.1% NP40 alternative, 0.1 mg/ml BSA, 2 mM DTT, 1 mM EDTA, 10% glycerol, 22 °C, 20 min; footprinting the same with 10 nM DNA and no glycerol; settings: protein: recombinant; tags: GST tag removed with thrombin; label: 5'-32P; four-way non-homologous Holliday junction, four 20 bp arms
# [7] = target: T2, D10 R389N; assay: EMSA; binding equivalent to wild type; not unwound; EMSA: 0.1 nM DNA, 20 mM HEPES-NaOH pH 7.5, 135 mM NaCl, 0.1% NP40 alternative, 0.1 mg/ml BSA, 2 mM DTT, 1 mM EDTA, 10% glycerol, 22 °C, 20 min; footprinting the same with 10 nM DNA and no glycerol; settings: protein: recombinant; tags: GST tag removed with thrombin; label: 5'-32P; four-way non-homologous Holliday junction, four 20 bp arms
binder,measurement,setting,value
B1,binding result,[1],binds
B2,binding signal,[2],~2 fold lower affinity than Y20
B3,binding result,[3],binds
B4,binding result,[4],binds
B5,binding result,[5]; nick in strand C at the junction,binds
B6,binding result,[5]; nick in strand B at the junction,binds
B7,binding result,[6],binds
same,binding result,[7],binds
